This is an account of results in patent publication US20230235074A1 (University of Texas, published 2023).

Broadly, the Kd is the constant that tells how readily two partners part at equilibrium. One may read the koff as the first-order rate constant of dissociation. Usually kon stands for a measure of how fast the partners come together.

For assay [1], the target named is BST2 long isoform (BST2-D, full length BST2, 180 amino acids) expressed on HEK293 transfectants (human) (UniProt Q10589). Nature of the assay: flow cytometry, HEK293 long transfectant, 1 ug/ml antibody, APC-conjugated secondary antibody. (In general: A flow cytometer gives signals particle by particle.)
Sequence of BST2 long isoform (BST2-D, full length BST2, 180 amino acids) expressed on HEK293 transfectants (human) (Q10589 1-161 limits assumed): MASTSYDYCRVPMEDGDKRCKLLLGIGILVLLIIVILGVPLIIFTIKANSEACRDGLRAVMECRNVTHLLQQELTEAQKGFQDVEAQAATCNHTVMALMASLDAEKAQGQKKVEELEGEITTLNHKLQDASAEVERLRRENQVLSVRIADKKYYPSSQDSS
For assay [2], the target named is BST2 as expressed endogenously on the surface of human cell lines (B-LCL, MM1, U266, MCF-10A, MCF7, MDA-MB-231, T47D) (human) (UniProt Q10589). Nature of the assay: flow cytometry dot plot, T47D-NS (non-silencing transduction) cells, 26F8 at 2 ug/ml and APC-conjugated secondary antibody.
Sequence of BST2 as expressed endogenously on the surface of human cell lines (B-LCL, MM1, U266, MCF-10A, MCF7, MDA-MB-231, T47D) (human) (Q10589 1-161, stated change not applied): as the sequence (Q10589 1-161 limits assumed) above
In assay [3] the target is Recombinant human BST2 protein (Catalog number 13370-H07H, Sino Biological) (human) (UniProt Q10589). Description: BLI (Octet RED384), mAb 5 ug/ml captured on anti-mouse IgG Fc (AMC) biosensors, BST2 protein 15.625-1000 nM, 1:1 model, global fit. A general note: In BLI a coated tip is dipped into the sample, and binding shifts an interference pattern.
Sequence of Recombinant human BST2 protein (Catalog number 13370-H07H, Sino Biological) (human) (Q10589 49-161 limits assumed): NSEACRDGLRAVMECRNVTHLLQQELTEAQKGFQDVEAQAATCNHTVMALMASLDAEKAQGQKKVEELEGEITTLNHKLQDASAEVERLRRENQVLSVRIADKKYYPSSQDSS
The target in assay [4] is BST2 as expressed endogenously on the surface of human cell lines (B-LCL, MM1, U266, MCF-10A, MCF7, MDA-MB-231, T47D) (human) (UniProt Q10589). Nature of the assay: flow cytometry on B-LCL cells, mAb 1 ug/ml.
The target is the same in assay [5]. Description: flow cytometry on MM1 cells, mAb 1 ug/ml.
The target is the same in assay [6]. Nature of the assay: flow cytometry on MCF7 cells, mAb 1 ug/ml.
Assay [7] has the same target. Description: flow cytometry on MM1 cells, mAb preincubated with Spartan protein.
Assay [8] addresses BST2 in human tissue microarray cores. Description: immunohistochemistry, tissue microarray #72070, antigen retrieval H1; Normal breast: 0 positive of 8 tested specimens.
Assay [9] concerns the target BST2 as expressed endogenously on the surface of human cell lines (B-LCL, MM1, U266, MCF-10A, MCF7, MDA-MB-231, T47D) (human) (UniProt Q10589). Description: flow cytometry dot plot, T47D-NS (non-silencing transduction) cells, 26F8 at 2 ug/ml and APC-conjugated secondary antibody; Q3 6.94, Q4 21.4.
In assay [10] the target is BST2 in human tissue microarray cores. Nature of the assay: immunohistochemistry, tissue microarray #72070, antigen retrieval H1; Placenta: 0 positive of 1 tested specimen.
Sequence of BST2 in human tissue microarray cores (chain, as listed by the source limits assumed): as the sequence (Q10589 1-161 limits assumed) above
Assay [11] concerns the target BST2 as expressed endogenously on the surface of human cell lines (B-LCL, MM1, U266, MCF-10A, MCF7, MDA-MB-231, T47D) (human) (UniProt Q10589). Description: flow cytometry on MDA-MB-231 cells, mAb 1 ug/ml.
The target of assay [12] is BST2 in human tissue microarray cores. Description: immunohistochemistry, tissue microarray #72070, antigen retrieval H1; Breast stroma: 0 positive of 8 tested specimens.
In assay [13] the target is BST2 as expressed endogenously on the surface of human cell lines (B-LCL, MM1, U266, MCF-10A, MCF7, MDA-MB-231, T47D) (human) (UniProt Q10589). Description: flow cytometry on U266 cells, mAb 1 ug/ml.
For assay [14] the target is unchanged. Nature of the assay: flow cytometry on MM1 cells, mAb preincubated with recombinant BST2 protein as competitor.
The target is the same in assay [15]. Description: flow cytometry dot plot, T47D cells transduced with BST2-silencing shRNA, 26F8 at 2 ug/ml and APC-conjugated secondary antibody.
For assay [16] the target is unchanged. Description: flow cytometry, MCF7 cells, APC-conjugated secondary antibody (the text prints 34.7% for the same panel).
For assay [17] the target is unchanged. Nature of the assay: flow cytometry dot plot, T47D-WT cells, 26F8 at 2 ug/ml and APC-conjugated secondary antibody; Q4 (unstained) 2.71.
The target of assay [18] is BST2 medium isoform (BST2-H, 158 amino acids) expressed on HEK293 transfectants. Nature of the assay: flow cytometry, mAb 1 ug/ml on HEK293-medium cells.
In assay [19] the target is BST2 in human tissue microarray cores. Nature of the assay: immunohistochemistry, tissue microarray #72070, antigen retrieval H1; BIDC stroma: 0 positive of 40 tested specimens.
The target in assay [20] is BST2 as expressed endogenously on the surface of human cell lines (B-LCL, MM1, U266, MCF-10A, MCF7, MDA-MB-231, T47D) (human) (UniProt Q10589). Nature of the assay: flow cytometry on MM1 cells, mAb not preincubated.
For assay [21] the target is unchanged. Nature of the assay: flow cytometry on T47D cells, mAb 1 ug/ml.
Assay [22] shares this target. Description: flow cytometry dot plot, T47D cells transduced with BST2-silencing shRNA, 26F8 at 2 ug/ml and APC-conjugated secondary antibody; Q3 58.1, Q4 26.6.
Assay [23] has the same target. Description: flow cytometry on MCF-10A cells, mAb 1 ug/ml.
The target of assay [24] is BST2 in human tissue microarray cores. Description: immunohistochemistry, tissue microarray #72070, antigen retrieval H1; Placenta stroma: 0 positive of 1 tested specimen.
Assay [25] has the same target. Description: immunohistochemistry, tissue microarray #78070 (normal tissues), antigen retrieval H1; Parenchymal: 0 positive of 7 tested.
The target in assay [26] is T1, BST2 long isoform (BST2-D, full length BST2, 180 amino acids) expressed on HEK293 transfectants (human, UniProt Q10589 1-161).
T1 construct: also called HEK293-long; HEK293 WT-BST2
T1 sequence (Q10589 1-161 limits assumed): as above
Description: flow cytometry, hybridoma supernatant on HEK293-long cells. As for the experimental part:
For flow cytometry assays, cells were detached using 0.05% trypsin-EDTA, counted, washed and resuspend with FACS Buffer (PBS, 2% FBS, 2 mM EDTA). 2×10⁵ cells in 100 ul/well were placed in U-bottom 96-well plate and centrifuged (1000 RPM/3 min/4° C.). The buffer was discarded and 100 ul of the previously collected supernatants with selected monoclonal antibodies were added to the wells and incubated on ice for 30 minutes. After incubation, the plate was washed three times with FACS buffer and 50 ul of diluted (1/250) secondary antibody (Donkey anti-mouse Allophycocyanin (APC) conjugated) were added to the wells and incubated on ice for 20 minutes protected from light. The final wash was repeated 4 times, and the samples were transferred and analyzed at the South Campus Flow Cytometry & Cell Sorting Core Laboratory at MD Anderson Cancer Center. FACS data were analyzed with FlowJo™ Software—for Windows (Version 10.6.1. Ashland, Oreg.: Becton, Dickinson and Company; 2020).

Assay [27] addresses T2, BST2 long isoform peptide (BST2-D peptide), positions 133-156 (human).
T2 construct: Synthetic 24-mer; the free peptide (not KLH conjugated) coated the ELISA plates; also called BST2-Long (D) peptide; BST2 peptide
T2 peptide: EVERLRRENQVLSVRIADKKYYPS
Nature of the assay: ELISA dilution assay, plate coated with BST2 peptide alone, hybridoma supernatant undiluted and 1/15, 1/225, 1/3375, OD 450 nm (axis unlabelled on the sheet). As for the experimental part: FIG. 5. Dilution assay. 26 positive clones were tested at serial dilutions as described under methods. Sixteen clones with the highest OD450 nm signal (those with squares around their names) were selected for further characterization. LA1-LA16 are clones picked at the first round of colony pickup; BM1-BM10 clones picked at the second round of colony pickup. PC is the positive control using anti-BST2 mAb (Clone 26F8) 1 ug/ml which recognizes all isoforms. Plates were coated with BST2 peptide alone.
To select the hybridomas capable of producing specific monoclonal antibodies against the BST2-D peptide, ELISA was performed. ELISA plates were coated with a 100 ul coating buffer, containing the BST2-D peptide in a concentration of 1 ug/ml, and incubated overnight at 4° C. Next day, ELISA plates were washed three times with PBST (PBS containing 0.05% v/v Tween®-20) and blocked with 100 ul of blocking buffer (PBS, 1% w/v BSA). After 1-hour blocking at room temperature, 50 ul supernatant from each of the 563 colonies were added to individual wells as the primary antibodies. Anti-BST2 mAb (Clone 26F8) [eBioscience] was used as a positive control and blank wells with secondary antibody only were performed in triplicates. Incubation proceeded for 1 hour followed by three washes. […] The reaction was stopped with H₂SO₄ 0.2N and the OD absorbance values were read at 450 nm. […]
For orientation: In an ELISA, binding on a coated surface is turned into a signal by an enzyme label.

“anti-BST2 monoclonal antibody clone 26F8 (eBioscience)”: the figures for the percent of cells stained in assay [1] and in assay [16] were 98.7% and 37.7%, respectively. The values for the percent of cells in quadrant Q1 (APC positive, GFP negative) in assay [2], in assay [15] and in assay [17] were 13.1%, 6.09% and 97.2%, respectively. For the same molecule, the Kd in assay [3] was found to be 0.0342 µM. For the same molecule, in assay [3], the koff was 0.00132 s⁻¹. Besides, the on-rate constant (kon) in assay [3] stood at 38600 M⁻¹ s⁻¹. The percentage of cell staining in [4] was found to be 99.7%; in assay [5] it was 99.6%; in assay [6] it was 34.7%; in assay [11], 28.4%; in [13] it was 97.1%; in assay [21], 96.6%. The percentage of cell staining in assay [23] was 27.7%. In addition, the percentage of stained cells is 98.1% in assay [7], 2.6% in assay [14] and 98.2% in assay [20]. For the same molecule, the detectable rate (% of tested specimens positive) in [8], in assay [10], in assay [12], in assay [19], in assay [24] and in assay [25] was 0% each time. Moreover, the percent of cells in quadrant Q2 (APC positive, GFP positive) is 58.5% in assay [9] and 9.27% in assay [22]. This molecule yielded a percentage of cells stained in assay [18] of 96.7%.

B1: LA1 antibody (antibody, IgG1, V domains shown)
VH: EVQLQQSGPELVKPGASVKISCKTSGYTFTEDTMHWVKQSHGKSLEWIGGINPNKGGTSYNQKFKDKATLTVDKSSSTAYMELRSLTSEDSAVYYCATLVDYWGQGTTLTVSS
VL: DIVMTQSQKFMSTSVGDRVSVTCKASQNVGTNVAWYQQKPGQSPKALIHSASYRYSGVPDRFTGSGSGTDFTLTISNVQSEDLAEYFCQQYNSYPLTFGAGTKLELK
notes: Mouse hybridoma antibody, isotype IgG1, kappa; Tested as hybridoma supernatant
With B1, the “percentage of cells stained” value in [26] is 70.9%. Moreover, the binding result in assay [27] is “binds”.
